Experimental data published in patent US20250032583A1 (GUANGDONG FAPON BIOPHARMA, published 2025).

Molecular target: T1, mPD1 (on CHO-mPD1 cells) (mouse (printed as mPD1), UniProt Q02242 25-288)
T1 construct: whole, on cells; Target of the antibody terminus in the FACS assay
T1 sequence (looked up): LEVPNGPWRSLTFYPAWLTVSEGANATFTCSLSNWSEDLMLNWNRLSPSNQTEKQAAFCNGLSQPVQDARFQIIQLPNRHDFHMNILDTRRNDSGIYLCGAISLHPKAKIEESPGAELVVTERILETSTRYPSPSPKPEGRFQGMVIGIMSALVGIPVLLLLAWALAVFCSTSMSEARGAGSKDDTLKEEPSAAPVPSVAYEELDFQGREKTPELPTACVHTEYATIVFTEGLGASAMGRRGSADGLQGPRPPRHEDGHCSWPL
Experiment: flow cytometry (FACS) on CHO-mPD1 cells, PE secondary antibody, 3-fold dilutions from 400 nM
Description: CHO-mPD1 or CHO-hIL-10R cells were centrifuged at 250 g for 5 min, a supernatant was discarded, the cell density was adjusted to 2E+06 by a PBS buffer with 3% BSA, and it was evenly divided into a 96-well V-shaped plate according to 100 μl/tube; the fusion protein molecules diluted above were added to cells, and incubated at 100 μL/well and 2-8° C. for 0.5 h; the 96-well plate was taken out, and centrifuged at 250 g for 5 min, and a supernatant was removed carefully; the PBS buffer with 3% BSA was used to prepare a PE fluorescent secondary antibody (1:500 dilution), it was added to the corresponding 96-well plate according to the volume of 100 μL/well, and the cells were resuspended, and incubated at 2-8° C. for 30 min; the 96-well plate was taken out, and centrifuged at 250 g for 5 min, a supernatant was removed carefully, the PBS buffer with 3% BSA was added at 200 μL/well, and it was centrifuged again at 250 g for 5 min, and a supernatant was removed carefully; and it was resuspended with 1×PBS according to the volume of 100 μL/well, and FACS detection was performed after the resuspension.

- binding result: binds
B1: R0989 (other)
heavy: QVQLKESGPGLVQPSQTLSLTCTVSGFSLTSYNVHWVRQPPGKGLEWMGGMRYNEDTSYNSALKSRLSISRDTSKNQVFLKMNSLQTDDTGTYYCTRDAVYGGYGGWFAYWGQGTLVTVSSASTKGPSVFPLAPSSKSTSGGTAALGCLVKDYFPEPVTVSWNSGALTSGVHTFPAVLQSSGLYSLSSVVTVPSSSLGTQTYICNVNHKPSNTKVDKRVEPKSCDKTHTCPPCPAPEAAGGPSVFLFPPKPKDTLMISRTPEVTCVVVDVSHEDPEVKFNWYVDGVEVHNAKTKPREEQYNSTYRVVSVLTVLHQDWLNGKEYKCKVSNKALPAPIEKTISKAKGSGSGSGSGQGTQSENSCTHFPGNLPNMLRDLRDAFSRVKTFFQMKDQLDNLLLKESLLEDFKGYLGCQALSEMIQFYLEEVMPQAENQDPDIKAHVNSLGENLKTLRLRLRRCHRFLPCENGGGSGGKSKAVEQVKNAFNKLQEKGIYKAMSEFDIFINYIEAYMTMKIRNGSGSGSGSGQPREPQVYTLPPSREEMTKNQVSLTCLVKGFYPSDIAVEWESNGQPENNYKTTPPVLDSDGSFFLYSKLTVDKSRWQQGNVFSCSVMHEALHNHYTQKSLSLSPGK
light: DTVLTQSPALAVSLGQRVTISCKASETVSSSMYSYIHWYQQKPGQQPKLLIYRASNLESGVPARFSGSGSGTDFTLTIDPVEADDVATYFCQQSWNPWTFGGGTKLELKRTVAAPSVFIFPPSDEQLKSGTASVVCLLNNFYPREAKVQWKVDNALQSGNSQESVTEQDSKDSTYSLSSTLTLSKADYEKHKVYACEVTHQGLSSPVTKSFNRGEC
notes: Anti-PD-1 antibody with the modified IL-10 monomer inserted between CH2 and CH3 through linker2; also called IL-10 monomer fusion protein, IL-10 monomer between CH2 and CH3 of the heavy chain (Position 3)
